Test results: paper PMC12524713

How the values were obtained:
[1] = target: catalytic domain of matrix metalloproteinase-14 (MMP14) (human) (UniProt P50281); experiment: SPR; cat-MMP14 amine-coupled on a CM5 chip (Biacore T200); 3CL^pro (0.062-20 uM) or PL^pro (0.041-10 uM) flowed in PBSP (20 mM phosphate pH 7.4, 137 mM NaCl, 2.7 mM KCl, 0.05% P20), 30 uL/min, 180 s association, 300 s dissociation, 25 C; 1:1 Langmuir kinetic fit, KD = kd/ka
[2] = target: SARS-CoV-2 3-chymotrypsin-like protease (3CL^pro) (SARS-CoV-2); experiment: mass photometry; TwoMP mass photometer, proteins diluted in PBS to 10 nM, room temperature, 60 s; the monomer is too small to resolve

SARS-CoV-2 3-chymotrypsin-like protease (3CL^pro) (enzyme)
Kd [1]: 3.21 µM | koff [1]: 0.0012 s⁻¹ | kon [1]: 386 M⁻¹ s⁻¹ | stoichiometry N [2]: 2
